Measured values published in US7943358B2, “Polymerase enhancing factor (PEF) extracts, PEF protein complexes, isolated PEF protein, and methods for purifying and identifying” (Agilent Technologies, Inc., priority 1997, dated 2011).

Tested on: gapped-duplex calf thymus DNA
Test: DNA polymerase activity, gapped-duplex calf thymus DNA assay
Format: biochemical
Protocol: Initially and as a control to confirm the activity of the DNA polymerase used, gapped-duplex calf thymus DNA (Pharmacia) assays were performed. The polymerase cocktail contained 50 mM Tris-HCl, pH 8.0, 5 mM MgCl2, 1 mM DTT, 50 μg/m BSA, 4% glycerol, 200 μM each dNTP, [^3H]TTP (0.5 mCi·μmole final concentration), and 250 μg/ml of activated calf thymus DNA (Pharmacia). Samples containing Pfu DNA polymerase or P. furiosus PEF were serially diluted in Pfu DNA polymerase storage buffer (50 mM Tris-HCl, pH 8.2, 0.1% NP-40, 0.1% Tween-20, 0.1 mM EDTA, 1 mM DTT, 50% glycerol) and then 1 μl of each dilution was added to 10 μl aliquots of polymerase cocktail. Polymerization reactions were conducted in triplicate for 30 minutes at 72° C. The extension reactions were quenched on ice, and then 5 μl aliquots were spotted immediately onto DE81 filters (Whatman). Unincorporated [^3H]TTP was removed by 6 washes with 2×SCC (0.3M NaCl, 30 mM sodium citrate, pH 7.0), followed by one wash with 100% ethanol. Incorporated radioactivity was measured by scintillation counting. The assay was calibrated by counting a known amount of [^3H]TTP on DE-81 filters, omitting the wash steps. One unit of polymerase activity is defined as the amount of enzyme which catalyzes the incorporation of 10 nmoles of total dNTP into polymeric form (binds to DE-81 paper) in 30 minutes at 72° C. […]

B1: PEF: polymerase enhancing factor complex purified from Pyrococcus furiosus; predominant components P50 and P45 (protein)
chain 1: MLHHVKLIYATKSRKLVGKKIVXXXPGSIAALDVKACEGLIRHGAEVHAVMSEAATKIIHPYAWNLPTGNPVITEITGFIEHVELAGEHENKADLILVCPATANTISKIACGIDDTPVTTVVTTAFPHIPIMIAPAMHETMYRHPIVRENIERLKKLGVEFIGPRIEEGRAKVASIDEIVYRVIKKLHKKTLEGKRVLVTAGATREYIDPIRFITNASSGKMGVALAEEADFRGAVTLIRTKGSVKAFRIRKIKLKVETVEEMLSAIENELRSKKYDVVIMAAAVSDFRPKIKAEGKIKSGRSITIELVPXNPKIIDRIKEIQPNVFLVGFKAETSKEKLIEEGKRQIERAKADLVVGNTLEAFGSEENQVVLIGRDFTKELPKMKKRELAERIWDEIEKXLS
chain 2: MLLPDWKIRKEILIEPFSEESLQPAGYDLRVGREAFVKGKLIDVEKEGKVVIPPREYALILTLERIKLPDDVMGDMKIRSSLAREGVIGSFAWVDPGWDGNLTLMLYNASNEPVELRYGERFVQIAFIRLEGPARNPYRGNYQGSTRLAFSKRKKL
modifications: not fully specified; X: residue not identified in the source
notes: polymerase enhancing factor complex purified from Pyrococcus furiosus; predominant components P50 and P45
DNA polymerase activity (in words): no significant DNA polymerase activity
